Source: patent US20240002501A1 (Memorial Sloan Kettering, published 2024)
Like-named read-outs stand apart in the source and are kept apart here.

Experiments:
[1] = molecular target: T1, L1-CAM-Fc (UniProt P32004 20-1120, limits assumed); assay: SPR (Biacore T100), L1-CAM-Fc immobilised on CM5 chip
T1 construct: also called antigen L1-CAM-Fc; not shown: Fc part
Procedure: (§1) In Vitro Binding Kinetics by Biacore T-100 Biosensor (GE Healthcare, Uppsala, Sweden). CM5 sensor chip (Research grade) and related reagents were purchased from Biacore USA (Piscataway, NJ). Antigen L1-CAM-Fc or L1-CAM-His was directly immobilized onto the CM5 sensor chip according to the manufacturer's instructions. Purified monoclonal antibodies (MoAbs) (mouse, chimeric IgG1 and IgG4, and humanized IgG1 and IgG4 versions of E71 and E72, and their IgG1n glycoforms) were diluted in HBS-EP buffer at varying concentrations (41.7˜666.7 nM) prior to analysis. Samples were injected over the sensor surface at a flow rate of 30 μl/min over 1 min. Association time was set for 1 min, dissociation time was set for from 5 min to 15 min. At the end of each cycle, the surface was regenerated using 50 mM NaOH at a flow rate of 50 μl/min over 1 min. The data were analyzed by the bivalent analyte model and default parameter setting for the rate constants using the Biacore T-100 evaluation software, and the apparent association on rate constant (kₒₙ), dissociation off rate constant (koff) and equilibrium dissociation constant (Kd=koff/kₒₙ) were calculated.

[2] = molecular target: T1, L1-CAM-Fc; assay: as above; remark: listed apart in the source
Procedure: as §1
The binding of huE71-BsAb and huE72-BsAb to both target cells and effector cells was tested by FACS immunostaining. huE71-BsAb was equally efficient as parental huE71 in binding to L1-CAM(+) neuroblastoma BE(2)C, whereas the binding of huE72-BsAb to BE(2)C was half of that observed with huE71-BsAb (FIG. 38(A)). For binding to CD3(+) T cells, both huE71-BsAb and huE72-BsAb were less efficient compared to huOKT3 IgG1; around 20 fold weaker than huOKT3 (FIG. 38(B)). The reduced avidity of the light chain-anchored scFv of the BsAbs for T cells was attributable in part to the spatial constraints of this format, but is advantageous for minimizing cytokine release especially when target cells were not present.

[3] = molecular target: T2, L1-CAM-His; assay: SPR (Biacore T100), L1-CAM-His immobilised on CM5 chip
T2 construct: recombinant soluble His-tagged antigen immobilised on the CM5 chip; also called antigen L1-CAM-His
T2 sequence (P32004 20-1120): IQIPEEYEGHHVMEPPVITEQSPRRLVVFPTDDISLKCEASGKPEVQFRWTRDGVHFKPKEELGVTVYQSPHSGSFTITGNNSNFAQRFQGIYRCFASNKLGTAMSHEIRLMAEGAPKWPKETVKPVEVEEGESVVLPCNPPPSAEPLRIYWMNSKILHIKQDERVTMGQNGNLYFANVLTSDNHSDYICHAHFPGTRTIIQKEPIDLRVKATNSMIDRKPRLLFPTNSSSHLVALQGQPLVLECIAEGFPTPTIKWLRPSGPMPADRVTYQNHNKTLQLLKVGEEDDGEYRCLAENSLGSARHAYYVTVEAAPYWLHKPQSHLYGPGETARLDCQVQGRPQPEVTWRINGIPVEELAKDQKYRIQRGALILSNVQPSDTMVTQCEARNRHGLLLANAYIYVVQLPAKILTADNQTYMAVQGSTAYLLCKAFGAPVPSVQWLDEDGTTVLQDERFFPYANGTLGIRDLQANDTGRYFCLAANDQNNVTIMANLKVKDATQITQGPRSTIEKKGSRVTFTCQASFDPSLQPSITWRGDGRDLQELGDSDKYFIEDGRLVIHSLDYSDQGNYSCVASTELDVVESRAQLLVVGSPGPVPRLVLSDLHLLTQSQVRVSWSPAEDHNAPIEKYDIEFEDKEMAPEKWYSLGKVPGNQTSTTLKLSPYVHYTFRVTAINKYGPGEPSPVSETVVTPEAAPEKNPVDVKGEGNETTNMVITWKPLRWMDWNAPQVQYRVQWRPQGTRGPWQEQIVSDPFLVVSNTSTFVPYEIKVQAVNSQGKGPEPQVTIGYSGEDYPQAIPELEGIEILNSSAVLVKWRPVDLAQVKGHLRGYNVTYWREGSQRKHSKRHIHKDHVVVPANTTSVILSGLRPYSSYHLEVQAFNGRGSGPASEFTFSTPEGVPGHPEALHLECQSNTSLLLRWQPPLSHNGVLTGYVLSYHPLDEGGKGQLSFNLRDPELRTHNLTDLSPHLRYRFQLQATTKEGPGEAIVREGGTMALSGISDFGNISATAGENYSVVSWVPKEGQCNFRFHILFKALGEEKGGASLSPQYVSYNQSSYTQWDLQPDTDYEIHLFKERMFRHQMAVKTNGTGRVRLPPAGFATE
Procedure: as §1

[4] = molecular target: T3, L1-CAM on L1-CAM(+) human tumor cells (human, UniProt P32004 20-1257); assay: cell-based or functional assay
T3 sequence (P32004 20-1257 limits assumed): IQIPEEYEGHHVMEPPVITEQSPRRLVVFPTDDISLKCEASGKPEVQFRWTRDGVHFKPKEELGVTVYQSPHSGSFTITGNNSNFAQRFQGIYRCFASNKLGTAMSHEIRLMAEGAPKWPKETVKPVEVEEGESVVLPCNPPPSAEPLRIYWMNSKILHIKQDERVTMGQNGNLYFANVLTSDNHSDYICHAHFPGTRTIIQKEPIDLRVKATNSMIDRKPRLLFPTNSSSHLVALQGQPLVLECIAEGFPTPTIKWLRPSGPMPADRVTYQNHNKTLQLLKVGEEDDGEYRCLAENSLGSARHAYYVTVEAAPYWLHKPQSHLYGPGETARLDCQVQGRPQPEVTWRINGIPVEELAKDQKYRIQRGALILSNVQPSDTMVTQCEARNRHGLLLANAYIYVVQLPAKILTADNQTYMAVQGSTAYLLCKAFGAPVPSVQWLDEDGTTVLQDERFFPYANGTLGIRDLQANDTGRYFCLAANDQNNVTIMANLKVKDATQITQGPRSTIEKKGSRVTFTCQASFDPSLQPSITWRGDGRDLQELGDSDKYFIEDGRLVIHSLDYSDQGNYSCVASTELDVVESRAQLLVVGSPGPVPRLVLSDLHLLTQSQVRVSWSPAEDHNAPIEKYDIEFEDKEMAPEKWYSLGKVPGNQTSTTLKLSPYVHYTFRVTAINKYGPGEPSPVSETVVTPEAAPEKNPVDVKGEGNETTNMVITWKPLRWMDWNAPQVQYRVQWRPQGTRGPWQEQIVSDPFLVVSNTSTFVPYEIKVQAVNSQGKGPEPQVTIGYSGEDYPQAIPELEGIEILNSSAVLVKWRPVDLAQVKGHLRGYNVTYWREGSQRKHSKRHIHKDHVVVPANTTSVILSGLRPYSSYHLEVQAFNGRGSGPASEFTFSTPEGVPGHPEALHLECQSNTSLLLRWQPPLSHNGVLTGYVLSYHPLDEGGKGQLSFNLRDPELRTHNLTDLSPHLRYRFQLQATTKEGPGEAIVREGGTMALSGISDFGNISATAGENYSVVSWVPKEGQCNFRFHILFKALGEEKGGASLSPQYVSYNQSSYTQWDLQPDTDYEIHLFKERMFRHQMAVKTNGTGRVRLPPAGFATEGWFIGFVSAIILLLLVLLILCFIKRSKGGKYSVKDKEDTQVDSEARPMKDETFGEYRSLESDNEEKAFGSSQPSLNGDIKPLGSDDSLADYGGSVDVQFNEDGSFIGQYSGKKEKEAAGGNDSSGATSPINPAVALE

[5] = molecular target: T4, CD3 on CD3(+) T cells (UniProt P07766 23-207); assay: FACS immunostaining of CD3(+) T cells
T4 construct: whole, on cells; CD3 is a complex of several chains
T4 sequence (P07766 23-207): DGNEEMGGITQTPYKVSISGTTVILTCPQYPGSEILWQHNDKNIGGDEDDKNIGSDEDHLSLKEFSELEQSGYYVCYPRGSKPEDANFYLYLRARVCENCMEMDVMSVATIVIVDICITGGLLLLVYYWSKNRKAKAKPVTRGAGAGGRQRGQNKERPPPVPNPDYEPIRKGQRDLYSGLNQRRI

[6] = molecular target: T3, L1-CAM on L1-CAM(+) human tumor cells; assay: cell-based or functional assay; remark: listed apart in the source

T1 sequence (P32004 20-1120 limits assumed): as the sequence (P32004 20-1120) above

Binder | Kd [1] [nM] | Kd [2] [nM] | koff [2] [s⁻¹] | kon [2] [M⁻¹ s⁻¹] | Kd [3] [nM] | further results
E71 (antibody, V domains shown, parental murine anti-L1-CAM antibody; also called mouse E71; murine E71; copies: 2 + 2) VH: QVQLQQPGDELVKPGASVKLSCKASGYTFTSYWMQWVKQRPGQGLEWIGEINPSNGRTNYNEMFKSKATLTVDKSSSTAYMQLSSLTSEDSAVYYCALYDGYYAMDYWGQGTSVTVSS VL: DIVMSQSPSSLAVSVGEKVTMSCKSSQSLLYSSNQKNYLAWYQQKPGQSPKLLIYWASTRESGVPDRFTGSGSGTDFTLTISSVKAEDLALYYCQQYHSYPFTFGSGTKLEIK | 0.314 | 2.23 | 0.000199 | 89300 | – | –
huE72-IgG1 (huE72 H1/L2) (antibody, V domains shown, Human IgG1; also called humanized E72 IgG1) VH: QVQLVQPGAEVVKPGASVKLSCKASGYTFTGYWMHWVKQAPGQGLEWIGEINPSNGRTNYNERFKSKATLTVDKSITTAFMELSRLRSDDTAVYFCARDYYGTSYNFDYWGQGTLLTVSS VL: DIQMTQSPSSLSVSVGDRVTITCKANEDINNRLAWYQQKPGKAPKLLISGATNLVTGVPSRFSGSGSGTDYTLTISSLQPEDFATYYCQQYWSTPFTFGQGTELEIKR | 0.252 | 1.88 | 0.000139 | 74000 | 0.27 | –
E72-H1L1 (antibody, human IgG1, kappa, V domains shown, also called huE72 H1/L1) VH: QVQLVQPGAEVVKPGASVKLSCKASGYTFTGYWMHWVKQAPGQGLEWIGEINPSNGRTNYNERFKSKATLTVDKSITTAFMELSRLRSDDTAVYFCARDYYGTSYNFDYWGQGTLLTVSS VL: DIQMTQSSSSFSVSVGDRVTITCKANEDINNRLAWYQQKPGKSPRLLISGATNLVTGVPSRFSGSGSGTDYTLTISSLQAEDFATYYCQQYWSTPFTFGQGTELEIKR | 0.0893 | – | – | – | 0.114 | –
E72-H2L1 (antibody, human IgG1, kappa, V domains shown, also called huE72 H2/L1) VH: QVQLVQPGAEVKKPGASVKLSCKASGYTFTGYWMHWVRQAPGQGLEWIGEINPSNGRTNYNERFKSRATLTVDKSISTAYMELSRLRSDDTAVYFCARDYYGTSYNFDYWGQGTLLTVSS VL: DIQMTQSSSSFSVSVGDRVTITCKANEDINNRLAWYQQKPGKSPRLLISGATNLVTGVPSRFSGSGSGTDYTLTISSLQAEDFATYYCQQYWSTPFTFGQGTELEIKR | 0.353 | – | – | – | 0.355 | –

The next lines start with results.

Kd [1] [nM] | Kd [2] [nM] | koff [2] [s⁻¹] | kon [2] [M⁻¹ s⁻¹] | Kd [3] [nM] | Binder | further results
4.26 | – | – | – | – | huE71-H2L1 (antibody, human IgG1, kappa, V domains shown) VH: QVQLVQSGSELKKPGASVKLSCKASGYTFTSYWMQWVRQAPGQGLEWIGEINPSNGRTNYNEMFKSRAVLSVDTSVSTAYMQLCSLKAEDTAVYYCALYDGYYAMDYWGQGTLVTVSS VL: DIVMTQSPSSLAVSVGERVTMSCKSSQSLLYSSNQKNYLAWYQQKPGQSPKLLIYWASTRESGVPDRFSGSGSGTDFTLTISSVKAEDVALYYCQQYHSYPFTFGQGTKLEIKR | –
0.517 | – | – | – | – | huE71-H1L2 (antibody, human IgG1, kappa, V domains shown) VH: QVQLVQPGDELVKPGASVKLSCKASGYTFTSYWMQWVKQRPGQGLEWIGEINPSNGRTNYNEMFKSKAVLSVDKSVSTAYMQLSSLTAEDTAVYYCALYDGYYAMDYWGQGTLVTVSS VL: DIVMTQSPDSLAVSLGERVTMNCKSSQSLLYSSNQKNYLAWYQQKPGQPPKLLIYWASTRESGVPDRFSGSGSGTDFTLTISSLQAEDVALYYCQQYHSYPFTFGQGTKLEIKR | –
2.72 | – | – | – | – | huE71-H2L2 (antibody, human IgG1, kappa, V domains shown) VH: QVQLVQSGSELKKPGASVKLSCKASGYTFTSYWMQWVRQAPGQGLEWIGEINPSNGRTNYNEMFKSRAVLSVDTSVSTAYMQLCSLKAEDTAVYYCALYDGYYAMDYWGQGTLVTVSS VL: DIVMTQSPDSLAVSLGERVTMNCKSSQSLLYSSNQKNYLAWYQQKPGQPPKLLIYWASTRESGVPDRFSGSGSGTDFTLTISSLQAEDVALYYCQQYHSYPFTFGQGTKLEIKR | –
0.536 | – | – | – | 0.667 | E72-H2L2 (antibody, human IgG1, kappa, V domains shown, also called huE72 H2/L2) VH: QVQLVQPGAEVKKPGASVKLSCKASGYTFTGYWMHWVRQAPGQGLEWIGEINPSNGRTNYNERFKSRATLTVDKSISTAYMELSRLRSDDTAVYFCARDYYGTSYNFDYWGQGTLLTVSS VL: DIQMTQSPSSLSVSVGDRVTITCKANEDINNRLAWYQQKPGKAPKLLISGATNLVTGVPSRFSGSGSGTDYTLTISSLQPEDFATYYCQQYWSTPFTFGQGTELEIKR | –
– | 5.28 | 0.000189 | 35800 | – | huE72-BsAb (huE72-huOKT3) (bispecific antibody, human IgG1, kappa, N297A, IgG-scFv format with huOKT3 scFv on the light chain; also called humanized E72-BsAb) heavy: not shown light: DIQMTQSPSSLSVSVGDRVTITCKANEDINNRLAWYQQKPGKAPKLLISGATNLVTGVPSRFSGSGSGTDYTLTISSLQPEDFATYYCQQYWSTPFTFGQGTELEIKRTVAAPSVFIFPPSDEQLKSGTASVVCLLNNFYPREAKVQWKVDNALQSGNSQESVTEQDSKDSTYSLSSTLTLSKADYEKHKVYACEVTHQGLSSPVTKSFNRGECTSGGGGSGGGGSGGGGSQVQLVQSGGGVVQPGRSLRLSCKASGYTFTRYTMHWVRQAPGKCLEWIGYINPSRGYTNYNQKFKDRFTISRDNSKNTAFLQMDSLRPEDTGVYFCARYYDDHYSLDYWGQGTPVTVSSGGGGSGGGGSGGGGSGGGGSGGGGSGGGGSDIQMTQSPSSLSASVGDRVTITCSASSSVSYMNWYQQTPGKAPKRWIYDTSKLASGVPSRFSGSGSGTDYTFTISSLQPEDIATYYCQQWSSNPFTFGCGTKLQITR | T cell cytotoxicity EC50, 4-hour 51Cr release assay, activated T cells (E:T ratio=10:1), IMR32-luciferase cell line [4]: 0.05 nM; fold weaker binding than huOKT3 IgG1 [5]: ~20 fold; EC50 of T cell cytotoxicity (4 h 51Cr release, E:T 10:1) on BE(1)N neuroblastoma cells (L1CAM MFI 614) [6]: 0.014 nM; EC50 of T cell cytotoxicity (4 h 51Cr release, E:T 10:1) on BE(2)C neuroblastoma cells (L1CAM MFI 608) [6]: 0.05 nM; EC50 of T cell cytotoxicity (4 h 51Cr release, E:T 10:1) on BE(2)S neuroblastoma cells (L1CAM MFI 166) [6]: 0.251 nM; EC50 of T cell cytotoxicity (4 h 51Cr release, E:T 10:1) on HTB24 breast CA cells (L1CAM MFI 431) [6]: 0.027 nM; EC50 of T cell cytotoxicity (4 h 51Cr release, E:T 10:1) on HTB26 breast CA cells (L1CAM MFI 33) [6]: 0.056 nM; EC50 of T cell cytotoxicity (4 h 51Cr release, E:T 10:1) on IMR32 LUC neuroblastoma cells (L1CAM MFI 285) [6]: 0.05 nM; EC50 of T cell cytotoxicity (4 h 51Cr release, E:T 10:1) on MCF7 breast CA cells (L1CAM MFI 54) [6]: 0.1 nM; EC50 of T cell cytotoxicity (4 h 51Cr release, E:T 10:1) on NB1691 neuroblastoma cells (L1CAM MFI 742) [6]: 0.031 nM; EC50 of T cell cytotoxicity (4 h 51Cr release, E:T 10:1) on NMB7 neuroblastoma cells (L1CAM MFI 224) [6]: 0.046 nM; EC50 of T cell cytotoxicity (4 h 51Cr release, E:T 10:1) on SKMEL5 melanoma cells (L1CAM MFI 269) [6]: 0.027 nM; EC50 of T cell cytotoxicity (4 h 51Cr release, E:T 10:1) on SKMEL28 melanoma cells (L1CAM MFI 184) [6]: 0.14 nM; EC50 of T cell cytotoxicity (4 h 51Cr release, E:T 10:1) on SKNMM LUC neuroblastoma cells (L1CAM MFI 598) [6]: 0.071 nM; EC50 of T cell cytotoxicity (4 h 51Cr release, E:T 10:1) on SKNSH neuroblastoma cells (L1CAM MFI 23) [6]: 0.158 nM
